Measurements: US20250101074A1 (Affibody, published 2025)

How the values were obtained:
Assay in all cases: SPR (Biacore), PEP07843 immobilized, analyte protein injected
hIL23 = biological target: T1, hIL23 (human, UniProt Q9NPF7 20-189; P29460 23-328)
T1 construct: the two subunits are general knowledge
T1 sequence (looked up) 1: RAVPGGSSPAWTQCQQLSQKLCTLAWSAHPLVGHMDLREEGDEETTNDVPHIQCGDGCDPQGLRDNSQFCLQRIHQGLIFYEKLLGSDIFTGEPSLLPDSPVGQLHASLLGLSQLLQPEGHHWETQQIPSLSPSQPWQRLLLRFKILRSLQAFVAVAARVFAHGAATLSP
T1 sequence (looked up) 2: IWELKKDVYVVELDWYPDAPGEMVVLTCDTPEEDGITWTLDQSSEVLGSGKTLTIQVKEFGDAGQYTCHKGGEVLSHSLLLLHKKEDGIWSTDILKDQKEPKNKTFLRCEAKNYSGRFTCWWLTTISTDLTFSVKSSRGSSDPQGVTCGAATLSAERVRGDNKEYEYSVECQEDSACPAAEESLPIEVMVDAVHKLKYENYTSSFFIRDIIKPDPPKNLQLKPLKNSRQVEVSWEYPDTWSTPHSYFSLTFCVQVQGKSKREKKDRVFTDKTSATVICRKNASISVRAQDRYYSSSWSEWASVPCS
Method: (§1) In the binding experiment, HBS-EP was used as running buffer and the flow rate was 30 μl/min. […] The analytes, i.e. the panels of 24 or 12 different proteins, were each diluted in HBS-EP or HBS-EP supplemented with 500 mM NaCl to final concentrations of from 0.4 to 250 nM and injected for 5 min. […] The results were analyzed using the BiaEvaluation software.
(§2) The Z-ABD-Z polypeptides were injected over surfaces containing HSA followed by injection of the analyte proteins.

[1] = biological target: Alpha-1-antitrypsin (SERPINA1 Human) (human, UniProt P01009 25-418)
Sequence of Alpha-1-antitrypsin (SERPINA1 Human) (P01009 25-418 limits assumed): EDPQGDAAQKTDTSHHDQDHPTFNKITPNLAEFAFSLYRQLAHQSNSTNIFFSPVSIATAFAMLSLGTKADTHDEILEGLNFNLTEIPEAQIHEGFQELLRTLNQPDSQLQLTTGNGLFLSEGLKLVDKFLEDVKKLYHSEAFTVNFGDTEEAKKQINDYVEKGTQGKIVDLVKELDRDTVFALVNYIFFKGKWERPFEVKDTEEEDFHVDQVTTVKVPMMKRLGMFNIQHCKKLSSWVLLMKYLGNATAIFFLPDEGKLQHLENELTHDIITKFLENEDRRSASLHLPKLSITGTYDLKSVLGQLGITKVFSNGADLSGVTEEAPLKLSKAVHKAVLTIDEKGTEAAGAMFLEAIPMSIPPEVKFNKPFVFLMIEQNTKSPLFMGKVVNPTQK
Method: as §1, §2

Human a-2 macroglobulin = biological target: T2, Human a-2 macroglobulin (human, UniProt P01023 24-1474)
T2 sequence (looked up): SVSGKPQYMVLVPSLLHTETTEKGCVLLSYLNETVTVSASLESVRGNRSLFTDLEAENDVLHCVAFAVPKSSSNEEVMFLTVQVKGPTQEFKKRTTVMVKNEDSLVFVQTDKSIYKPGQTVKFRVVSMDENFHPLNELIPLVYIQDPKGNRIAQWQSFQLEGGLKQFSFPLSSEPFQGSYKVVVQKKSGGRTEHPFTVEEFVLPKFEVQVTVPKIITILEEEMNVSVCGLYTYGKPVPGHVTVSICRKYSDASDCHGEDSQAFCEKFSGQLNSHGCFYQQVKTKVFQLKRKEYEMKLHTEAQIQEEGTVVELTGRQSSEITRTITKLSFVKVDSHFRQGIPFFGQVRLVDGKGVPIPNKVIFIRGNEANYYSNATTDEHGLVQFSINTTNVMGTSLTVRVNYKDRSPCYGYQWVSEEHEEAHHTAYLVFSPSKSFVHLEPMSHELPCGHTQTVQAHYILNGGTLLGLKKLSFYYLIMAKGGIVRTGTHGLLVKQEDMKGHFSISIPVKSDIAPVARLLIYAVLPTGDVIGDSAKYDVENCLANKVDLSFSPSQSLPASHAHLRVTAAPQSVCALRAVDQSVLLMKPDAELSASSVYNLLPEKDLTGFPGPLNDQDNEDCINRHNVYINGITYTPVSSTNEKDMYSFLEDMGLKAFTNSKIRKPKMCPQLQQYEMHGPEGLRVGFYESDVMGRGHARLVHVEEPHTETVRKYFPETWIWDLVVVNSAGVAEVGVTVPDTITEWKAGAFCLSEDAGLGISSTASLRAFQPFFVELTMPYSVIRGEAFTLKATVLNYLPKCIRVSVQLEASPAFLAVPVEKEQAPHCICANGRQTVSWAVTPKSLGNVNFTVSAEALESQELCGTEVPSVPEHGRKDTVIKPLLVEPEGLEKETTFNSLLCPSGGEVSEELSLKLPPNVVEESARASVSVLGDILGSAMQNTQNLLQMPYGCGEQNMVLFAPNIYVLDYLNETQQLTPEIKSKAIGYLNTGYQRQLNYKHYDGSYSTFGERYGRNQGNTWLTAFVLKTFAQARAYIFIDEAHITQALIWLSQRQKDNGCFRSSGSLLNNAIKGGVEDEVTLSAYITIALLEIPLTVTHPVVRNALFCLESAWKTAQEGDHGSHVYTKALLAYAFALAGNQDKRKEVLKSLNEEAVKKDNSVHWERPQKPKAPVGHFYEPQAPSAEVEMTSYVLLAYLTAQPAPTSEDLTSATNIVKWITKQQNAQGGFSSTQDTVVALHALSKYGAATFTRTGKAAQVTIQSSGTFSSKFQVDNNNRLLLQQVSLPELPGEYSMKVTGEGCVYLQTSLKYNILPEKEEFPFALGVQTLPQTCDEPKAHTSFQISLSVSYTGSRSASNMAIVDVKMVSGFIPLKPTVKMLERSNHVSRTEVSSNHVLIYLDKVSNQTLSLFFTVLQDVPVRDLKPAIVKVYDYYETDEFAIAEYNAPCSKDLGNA
Method: as §1, §2

[2] = biological target: T3, Human Hemopexin/HPX Protein (human, UniProt P02790 24-462)
T3 sequence (looked up): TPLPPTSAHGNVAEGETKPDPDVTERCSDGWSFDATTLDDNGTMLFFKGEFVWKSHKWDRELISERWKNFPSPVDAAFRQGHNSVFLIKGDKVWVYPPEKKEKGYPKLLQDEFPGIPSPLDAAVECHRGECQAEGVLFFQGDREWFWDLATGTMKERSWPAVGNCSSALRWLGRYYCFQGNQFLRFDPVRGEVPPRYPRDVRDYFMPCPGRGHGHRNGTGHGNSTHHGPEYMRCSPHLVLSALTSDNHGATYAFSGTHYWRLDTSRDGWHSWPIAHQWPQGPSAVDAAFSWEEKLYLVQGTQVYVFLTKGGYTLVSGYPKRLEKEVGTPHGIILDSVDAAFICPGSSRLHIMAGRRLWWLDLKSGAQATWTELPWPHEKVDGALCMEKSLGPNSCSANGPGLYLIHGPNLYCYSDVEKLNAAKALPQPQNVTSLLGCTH
Method: as §1, §2

[3] = biological target: Transthyretin/TTR/Prealbumin/PALB Protein (UniProt P02766 21-147)
Method: as §1, §2

Measured: binding result

GSSLAEAKEAANAELDSYGVSDFYKRLIDKAKTVEGVEALKDAILAALP (designed binder) [ABD variant PEP07843]
no binding (tested: 50, 250 nM): hIL23 | [1] | Human a-2 macroglobulin | [2] | [3]
